# In patent publication US20140335573A1:
# Target: native C. thermocellum cellulosome (purified from culture media of C. thermocellum ATCC 27405) (Clostridium thermocellum) (UniProt Q06851)
# Test: cell-based or functional assay
# UniProt Q06851, sequence (Q06851 whole entry): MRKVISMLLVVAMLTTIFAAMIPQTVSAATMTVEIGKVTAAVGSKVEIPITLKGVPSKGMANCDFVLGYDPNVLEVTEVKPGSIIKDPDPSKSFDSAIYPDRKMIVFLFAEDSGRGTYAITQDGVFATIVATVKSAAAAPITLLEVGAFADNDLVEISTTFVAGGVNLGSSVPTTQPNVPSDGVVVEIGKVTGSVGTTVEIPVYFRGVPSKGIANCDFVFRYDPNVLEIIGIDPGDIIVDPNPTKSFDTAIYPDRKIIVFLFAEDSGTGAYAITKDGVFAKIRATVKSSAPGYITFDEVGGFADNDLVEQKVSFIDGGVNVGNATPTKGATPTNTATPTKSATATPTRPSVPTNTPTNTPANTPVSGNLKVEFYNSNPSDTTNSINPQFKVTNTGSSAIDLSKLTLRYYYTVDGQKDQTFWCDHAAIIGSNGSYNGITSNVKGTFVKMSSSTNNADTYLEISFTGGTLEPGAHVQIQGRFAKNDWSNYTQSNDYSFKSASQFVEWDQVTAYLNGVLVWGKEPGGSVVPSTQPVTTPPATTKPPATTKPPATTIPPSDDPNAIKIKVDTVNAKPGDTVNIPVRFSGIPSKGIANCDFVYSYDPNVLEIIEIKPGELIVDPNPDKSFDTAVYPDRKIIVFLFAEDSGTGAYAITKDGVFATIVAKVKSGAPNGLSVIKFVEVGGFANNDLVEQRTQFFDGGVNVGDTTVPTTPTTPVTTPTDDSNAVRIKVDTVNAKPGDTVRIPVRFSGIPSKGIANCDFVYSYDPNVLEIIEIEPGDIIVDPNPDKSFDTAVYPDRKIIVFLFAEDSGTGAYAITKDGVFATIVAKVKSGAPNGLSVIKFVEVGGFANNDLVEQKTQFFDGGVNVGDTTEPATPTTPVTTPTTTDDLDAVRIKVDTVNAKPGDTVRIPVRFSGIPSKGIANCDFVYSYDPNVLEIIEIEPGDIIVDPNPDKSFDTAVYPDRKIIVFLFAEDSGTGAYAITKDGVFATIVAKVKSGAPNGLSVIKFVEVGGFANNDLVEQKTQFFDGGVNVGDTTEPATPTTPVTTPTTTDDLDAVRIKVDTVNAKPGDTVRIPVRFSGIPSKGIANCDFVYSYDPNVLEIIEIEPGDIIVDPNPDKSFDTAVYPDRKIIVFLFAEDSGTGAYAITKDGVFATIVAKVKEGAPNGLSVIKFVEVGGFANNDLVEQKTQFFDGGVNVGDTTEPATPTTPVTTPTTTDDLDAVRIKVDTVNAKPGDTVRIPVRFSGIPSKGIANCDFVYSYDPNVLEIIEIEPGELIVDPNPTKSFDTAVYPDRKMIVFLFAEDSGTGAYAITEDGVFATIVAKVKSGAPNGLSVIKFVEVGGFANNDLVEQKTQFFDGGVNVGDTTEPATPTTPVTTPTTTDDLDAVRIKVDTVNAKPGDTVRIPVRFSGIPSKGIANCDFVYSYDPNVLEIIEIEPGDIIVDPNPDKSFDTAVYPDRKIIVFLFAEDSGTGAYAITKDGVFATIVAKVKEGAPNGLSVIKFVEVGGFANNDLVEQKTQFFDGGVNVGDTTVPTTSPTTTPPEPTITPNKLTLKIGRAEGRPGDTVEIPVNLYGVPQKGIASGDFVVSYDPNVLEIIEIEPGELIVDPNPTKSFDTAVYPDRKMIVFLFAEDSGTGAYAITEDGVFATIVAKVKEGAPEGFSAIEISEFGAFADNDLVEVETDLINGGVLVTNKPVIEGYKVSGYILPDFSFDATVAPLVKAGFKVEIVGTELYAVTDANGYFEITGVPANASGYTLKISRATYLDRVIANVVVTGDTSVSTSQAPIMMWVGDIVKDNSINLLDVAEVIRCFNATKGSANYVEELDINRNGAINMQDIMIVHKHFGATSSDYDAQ
substance,measurement,value
BglA-CohII (C. thermocellum beta-glucosidase A fused to the type-II cohesin module of Orf2p) (enzyme),"hydrolysis of microcrystalline cellulose (soluble reducing sugars), fold over native cellulosome",2.68 fold
same,"hydrolysis of pre-treated switchgrass (soluble reducing sugars), fold over native cellulosome",1.86 fold
